Data on 6 sequences can be found in the supplement of paper PMC5998384.

Data set [1] relates to HeLa Kyoto. Description: thermal stability score vs G1/S (z-score of summed log2 fold changes over temperatures); higher = more thermally stable than in G1/S.
In data set [2] the test system is HeLa Kyoto. Description: solubility change mitosis vs G1/S (difference of NP-40 vs SDS log2 ratios) (log2 ratio difference); higher = more soluble in mitosis.
Data set [3] concerns HeLa Kyoto. Kind of data set: solubility in G1/S (NP-40 vs SDS abundance) (log2 ratio); higher = more soluble. The conditions noted are these: cell cycle stage: G1/S.
The subject of data set [4] is HeLa Kyoto. Description: melting temperature (median over replicates), in situ; higher = more thermally stable.
[5] abbreviates: cell cycle stage: early G1 (4.5 h after nocodazole release).
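For melting temperature (median over replicates), in situ in this document: HeLa Kyoto cells synchronized by double thymidine or nocodazole block, proteins quantified by TMT10plex mass spectrometry, three independent biological replicates.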
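For solubility change mitosis vs G1/S (difference of NP-40 vs SDS log2 ratios) in this document: synchronized HeLa Kyoto cells (double thymidine block for G1/S, nocodazole release for mitosis), protein amounts in NP-40 versus SDS lysates quantified by mass spectrometry, three biological replicates.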
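For solubility in G1/S (NP-40 vs SDS abundance) in this document: HeLa Kyoto cells arrested at G1/S by double thymidine block, proteins quantified by TMT10plex mass spectrometry in mild NP-40 versus SDS extracts, three biological replicates.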
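For thermal stability score vs G1/S (z-score of summed log2 fold changes over temperatures) in this document: synchronized HeLa Kyoto cells, proteins quantified by TMT10plex mass spectrometry, three biological replicates, mitosis taken 0.5 h after nocodazole release, G1/S directly after double thymidine block.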

With “MPLENLEEEGLPKNPDLRIAQLRFLLSLPEHRGDAAVRDELMAAVRDNNMAPYYEALCKSLDWQIDVDLLNKMKKANEDELKRLDEELEDAEKNLGESEIRDAMMAKAEYLCRIGDKEGALTAFRKTYDKTVALGHRLDIVFYLLRIGLFYMDNDLITRNTEKAKSLIEEGGDWDRRNRLKVYQGLYCVAIRDFKQAAELFLDTVSTFTSYELMDYKTFVTYTVYVSMIALERPDLREKVIKGAEILEVLHSLPAVRQYLFSLYECRYSVFFQSLAVVEQEMKKDWLFAPHYRYYVREMRIHAYSQLLESYRSLTLGYMAEAFGVGVEFIDQELSRFIAAGRLHCKIDKVNEIVETNRPDSKNWQYQETIKKGDLLLNRVQKLSRVINM [PSMD6]”, the thermal stability score in data set [1] (setting [5]) was found to be 1; in data set [1] (cell cycle stage: mitosis), 1.09. Also, the “solubility change mitosis (log2)” value in data set [2] was -0.189. Moreover, the “solubility in G1/S (log2)” value in data set [3] is -0.15. The melting temperature in data set [4] (cell cycle stage: G1/S) amounted to 53.3 °C; in data set [4] (cell cycle stage: mitosis), 53.2 °C.

On to “MPLLGLLPRRAWASLLSQLLRPPCASCTGAVRCQSQVAEAVLTSQLKAHQEKPNFIIKTPKGTRDLSPQHMVVREKILDLVISCFKRHGAKGMDTPAFELKETLTEKYGEDSGLMYDLKDQGGELLSLRYDLTVPFARYLAMNKVKKMKRYHVGKVWRRESPTIVQGRYREFCQCDFDIAGQFDPMIPDAECLKIMCEILSGLQLGDFLIKVNDRRIVDGMFAVCGVPESKFRAICSSIDKLDKMAWKDVRHEMVVKKGLAPEVADRIGDYVQCHGGVSLVEQMFQDPRLSQNKQALEGLGDLKLLFEYLTLFGIADKISFDLSLARGLDYYTGVIYEAVLLQTPTQAGEEPLNVGSVAAGGRYDGLVGMFDPKGHKVPCVGLSIGVERIFYIVEQRMKTKGEKVRTTETQVFVATPQKNFLQERLKLIAELWDSGIKAEMLYKNNPKLLTQLHYCESTGIPLVVIIGEQELKEGVIKIRSVASREEVAIKRENFVAEIQKRLSES [HARS2]”, for which the thermal stability score in data set [1] (setting [5]) is 2.43; in data set [1] (cell cycle stage: mitosis), 1.63. Also, the “solubility change mitosis (log2)” value in data set [2] is -0.0551. Besides, the “solubility in G1/S (log2)” value in data set [3] stood at 0.0324. The melting temperature in data set [4] (cell cycle stage: G1/S) was 53.6 °C; in data set [4] (cell cycle stage: mitosis), 53.3 °C.

Turning to “MPLPVALQTRLAKRGILKHLEPEPEEEIIAEDYDDDPVDYEATRLEGLPPSWYKVFDPSCGLPYYWNADTDLVSWLSPHDPNSVVTKSAKKLRSSNADAEEKLDRSHDKSDRGHDKSDRSHEKLDRGHDKSDRGHDKSDRDRERGYDKVDRERERDRERDRDRGYDKADREEGKERRHHRREELAPYPKSKKAVSRKDEELDPMDPSSYSDAPRGTWSTGLPKRNEAKTGADTTAAGPLFQQRPYPSPGAVLRANAEASRTKQQD [PQBP1]”, the thermal stability score was -3.93 in data set [1] (setting [5]) and -4.26 in data set [1] (cell cycle stage: mitosis). Besides, the “solubility change mitosis (log2)” value in data set [2] was determined as 0.599. For the same sequence, in data set [3], the “solubility in G1/S (log2)” value turned out to be 0.0148. The melting temperature in data set [4] (cell cycle stage: G1/S) stood at 58.2 °C; in data set [4] (cell cycle stage: mitosis), 54.6 °C.

For “MPLSDFILALKDNPYFGAGFGLVGVGTALALARKGVQLGLVAFRRHYMITLEVPARDRSYAWLLSWLTRHSTRTQHLSVETSYLQHESGRISTKFEFVPSPGNHFIWYRGKWIRVERSREMQMIDLQTGTPWESVTFTALGTDRKVFFNILEEARELALQQEEGKTVMYTAVGSEWRPFGYPRRRRPLNSVVLQQGLADRIVRDVQEFIDNPKWYTDRGIPYRRGYLLYGPPGCGKSSFITALAGELEHSICLLSLTDSSLSDDRLNHLLSVAPQQSLVLLEDVDAAFLSRDLAVENPVKYQGLGRLTFSGLLNALDGVASTEARIVFMTTNHVDRLDPALIRPGRVDLKEYVGYCSHWQLTQMFQRFYPGQAPSLAENFAEHVLRATNQISPAQVQGYFMLYKNDPVGAIHNAESLRR [BCS1L]”, the thermal stability score was 0.147 in data set [1] (setting [5]) and -1.22 in data set [1] (cell cycle stage: mitosis). The “solubility change mitosis (log2)” value in data set [2] was -0.291. Further, in data set [3], the “solubility in G1/S (log2)” value was -0.165. Besides, the values for the melting temperature in data set [4] (cell cycle stage: G1/S) and in data set [4] (cell cycle stage: mitosis) were 55.4 °C and 54.8 °C, respectively.

On to “MPMFIVNTNVPRASVPDGFLSELTQQLAQATGKPPQYIAVHVVPDQLMAFGGSSEPCALCSLHSIGKIGGAQNRSYSKLLCGLLAERLRISPDRVYINYYDMNAANVGWNNSTFA [MIF]”, for which the thermal stability score was -7.37 in data set [1] (setting [5]) and -7.71 in data set [1] (cell cycle stage: mitosis). In data set [2], the “solubility change mitosis (log2)” value is -0.0337. Moreover, the “solubility in G1/S (log2)” value in data set [3] came to 0.405. The melting temperature is 53.5 °C in data set [4] (cell cycle stage: G1/S) and 52.5 °C in data set [4] (cell cycle stage: mitosis).

Regarding “MPNSEPASLLELFNSIATQGELVRSLKAGNASKDEIDSAVKMLVSLKMSYKAAAGEDYKADCPPGNPAPTSNHGPDATEAEEDFVDPWTVQTSSAKGIDYDKLIVRFGSSKIDKELINRIERATGQRPHHFLRRGIFFSHRDMNQVLDAYENKKPFYLYTGRGPSSEAMHVGHLIPFIFTKWLQDVFNVPLVIQMTDDEKYLWKDLTLDQAYSYAVENAKDIIACGFDINKTFIFSDLDYMGMSSGFYKNVVKIQKHVTFNQVKGIFGFTDSDCIGKISFPAIQAAPSFSNSFPQIFRDRTDIQCLIPCAIDQDPYFRMTRDVAPRIGYPKPALLHSTFFPALQGAQTKMSASDPNSSIFLTDTAKQIKTKVNKHAFSGGRDTIEEHRQFGGNCDVDVSFMYLTFFLEDDDKLEQIRKDYTSGAMLTGELKKALIEVLQPLIAEHQARRKEVTDEIVKEFMTPRKLSFDFQ [WARS]”, the thermal stability score was -0.453 in data set [1] (setting [5]) and -0.825 in data set [1] (cell cycle stage: mitosis). Moreover, the “solubility change mitosis (log2)” value in data set [2] was -0.199. The “solubility in G1/S (log2)” value in data set [3] was determined as 0.127. Moreover, the melting temperature turned out to be 56.7 °C in data set [4] (cell cycle stage: G1/S) and 56.3 °C in data set [4] (cell cycle stage: mitosis).
